B1: DVL3 (parent)
chain: FPELGYSYGGGSASSQHSEGSRSS

Variants of: B1
Assay: protein stability index of a GFP-peptide fusion (GPS, HEK-293T) (PSI 1-6); higher = more stable
Conditions: c terminus: a fixed tail appended
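Also: lentivirally expressed fusions sorted by FACS into six bins by GFP to DsRed ratio, PSI derived from sequencing read proportions per bin multiplied by bin number.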

Point of comparison: L4I, protein stability index 3.25. Against it:
- G5L — lower, 3.18
- G5P — lower, 2.58
- G5D — higher, 4.59
- G5Q — higher, 4.39
- G5R — higher, 3.58
- G5I — lower, 2.93
- G5H — lower, 3.08
- G5M — higher, 3.31
- G5E — higher, 4.81
- G5Y — lower, 2.5
- G5W — lower, 1.61
- G5T — higher, 3.96
- G5C — higher, 3.52
- G5N — higher, 3.96
- G5F — lower, 2.33
- G5K — higher, 3.98
- G5V — higher, 3.64
- G5A — lower, 2.91
- G5S — higher, 3.52
- A13C — lower, 2.22
- A13W — lower, 1.91
- A13L — lower, 3.18
- A13S — lower, 2.9
- A13Q — lower, 2.8
- A13E — higher, 3.47
- A13K — lower, 2.63
- A13F — lower, 2.31
- A13G — lower, 3.04
- A13T — higher, 3.31
- A13H — lower, 2.73
- A13V — lower, 3.12
- A13Y — lower, 2.49
- A13D — lower, 2.77
- A13M — lower, 2.98
- A13I — lower, 2.45
- A13P — lower, 2.94
- A13R — lower, 3.12
- A13N — lower, 3.03
- E3T — lower, 2.19
- E3F — lower, 2.93
- E3A — higher, 3.43
- E3Q — lower, 3.16
- E3N — lower, 2.63
- E3V — higher, 3.75
- E3I — higher, 3.59
- E3D — lower, 2.67
- E3L — higher, 3.87
- E3G — lower, 2.12
- E3K — lower, 2.62
- E3R — higher, 3.41
- E3H — lower, 2.58
- E3Y — lower, 2.61
- E3W — lower, 2.99
- E3M — higher, 3.5
- E3S — lower, 1.59
- E3P — lower, 2.96
- E3C — lower, 2.76
- G11I — lower, 2.22
- G11D — higher, 3.35
- G11R — higher, 3.5
- G11L — lower, 2.57
- G11N — lower, 2.98
- G11T — lower, 2.52
- G11H — higher, 3.29
- G11F — lower, 2.28
- G11V — lower, 2.81
- G11M — lower, 2.73
- G11E — lower, 3.22
- G11C — lower, 2.7
- G11P — lower, 2.9
- G11W — lower, 2.11
- G11K — lower, 2.7
- G11Q — lower, 3.16
- G11S — lower, 3.03
- G11A — higher, 3.29
- G11Y — lower, 2.38
- Q16H — lower, 3.12
- Q16A — lower, 2.86
- Q16P — higher, 3.31
- Q16S — lower, 3.09
- Q16F — lower, 2.03
- Q16V — lower, 2.7
- Q16T — higher, 3.48
- Q16D — higher, 3.58
- Q16R — lower, 2.41
- Q16W — lower, 2.27
- Q16I — lower, 3.05
- Q16Y — lower, 2.69
- Q16K — lower, 2.95
- Q16M — lower, 3.07
- Q16G — lower, 2.88
- Q16N — higher, 3.28
- Q16L — lower, 2.83
- Q16C — lower, 2.81
- Q16E — lower, 3.22
- G20A — lower, 2.52
- E19A — lower, 2.99
- E19M — lower, 3.12
- E19S — lower, 3.16
- E19I — lower, 2.94
- E19Q — lower, 2.66
- E19V — lower, 2.52
- E19H — lower, 2.38
- E19Y — lower, 2.41
- E19D — higher, 3.64
- E19C — lower, 2.39
- E19P — lower, 3.15
- E19F — higher, 3.64
- E19R — lower, 2.85
- E19N — lower, 2.59
- E19G — lower, 2.87
- E19T — lower, 3.24
- E19L — lower, 2.06
- E19W — lower, 1.81
- E19K — lower, 2.89
- L4V — higher, 3.36
- L4D — higher, 4.52
- L4M — lower, 2.09
- L4K — lower, 2.98
- L4S — lower, 2.62
- L4E — higher, 4.31
- L4Q — higher, 3.35
- L4H — higher, 3.33
- L4T — higher, 3.77
- L4P — lower, 3.24
- L4A — higher, 3.47
- L4W — lower, 1.76
- L4F — lower, 3.16
- L4G — lower, 1.8
- L4N — lower, 2.35
- L4R — lower, 2.84
- L4C — lower, 2.82
- L4Y — lower, 2.57
- S14I — lower, 2.9
- S14E — higher, 3.41
- S14V — lower, 2.96
- S14W — lower, 2.47
- S14C — lower, 2.71
- S14R — the same, 3.25
- S14A — higher, 3.45
- S14M — lower, 2.59
- S14Y — lower, 2.37
- S14F — lower, 2.16
- S14D — higher, 3.61
- S14K — higher, 3.51
- S14H — lower, 3.17
- S14L — lower, 2.73
- S14T — lower, 2.77
- S14P — lower, 3.24
- S14G — higher, 3.44
- S14Q — lower, 2.99
- S14N — lower, 2.87
- H17G — lower, 3.07
- H17S — lower, 2.8
- H17A — lower, 3.12
- H17F — lower, 2.77
- H17E — higher, 3.29
- H17K — lower, 3.12
- H17W — lower, 2.77
- H17M — lower, 2.62
- H17V — lower, 3.22
- H17R — lower, 2.61
- H17L — lower, 2.77
- H17P — higher, 3.35
- H17C — lower, 3.1
- H17N — higher, 3.31

Source: the supplement of paper PMC10567573
